# Test results: patent publication US7786348B2, “Methods for producing pathogen-resistant plants with allene oxide synthase and divinyl ether synthase, and the amino acid and nucleotide sequences thereof” (BASF Plant Science GmbH, priority 2001, dated 2010)
# Experiments:
# [1] = tested on: Blumeria graminis f.sp. hordei; assay: Transient transformation of barley leaf segments, powdery mildew penetration; assay type: cell-based, barley cv. Pallas; details: for haustorial growth of the fungus in transformed cells: Calcofluor staining, fluorescence microscopy; for effect on total number or number of attacked GFP-expressing cells: compared with control cDNA experiments; for average % RPE value (relative penetration efficiency): deviation from average penetration efficiency of the control; for reduction of penetration efficiency by Blumeria graminis f.sp. hordei: on average, six experiments, versus control cDNA (TR), 48 hours after inoculation
# Protocol: Barley cv. Pallas leaf segments were transformed with a cDNA of Pp291 or Pp364 which were present in the GFP expression vector (green fluorescence protein). The leaves were subsequently inoculated with the pathogenic fungus Blumeria graminis f.sp. hordei (powdery mildew of barley), and the result was analyzed after 48 hours by means of light microscopy and fluorescence microscopy. The penetration into GFP-expressing cells was assessed by detecting haustoria in live cells and by assessing the fungal development in precisely those cells. […].
# The transient transformation of barley was carried out with a method which had already been described for the biloistic introduction of cDNA into epidermal cells of barley leaves (Schweizer P et al. (1999) Mol Plant Microbe Interact 12:647-54; Schweizer P et al. (2000) Plant J 2000 24:895-903). Tungsten particles with a diameter of […] (particle density 25 mg/ml) were coated with cDNA together with plasmid DNA of the vector pGFP (GFP under the control of the CaMV 35S promoter) as transformation marker. To this end, the following amount of cDNA and reporter plasmid were used for coating purposes for each bombardment: 1 mg of pGFP and 2 mg of cDNA. To prepare the microcarriers, 55 mg of tungsten particles (M 17, diameter […]; Bio-Rad, Munich) were washed twice with 1 ml of autoclave distilled water and once with 1 ml of absolute ethanol, dried and taken up in 1 ml of 50% strength glycerol (approximately 50 mg/ml stock solution). The solution was diluted with 50% strength glycerol to 25 mg/ml, mixed thoroughly before use and suspended in an ultrasonic bath. To coat the microcarriers, 1 mg of plasmid, 2 mg of cDNA (1 mL), […] of tungsten particle suspension (25 mg/ml), […] of 1 M Ca(NO3)2 solution (pH 10) per bombardment were combined dropwise with constant mixing, left to stand for 10 minutes at RT and centrifuged briefly, and […] of supernatant were removed. The remainder, which contained the tungsten particles, is resuspended (ultrasonic bath) and employed in the experiment.
# Barley primary leaf segments approximately 4 cm in length were used. The tissue was placed on 0.5% Phytagar (GibcoBRLt Life Technologiest, Karlsruhe) supplemented with […] benzimidazole in Petri dishes (diameter 6.5 cm); immediately prior to the particle bombardment, the edges were covered with a stencil with a rectangular slot 2.2 cm×2.3 cm in size. One after the other, the dishes were placed on the bottom of the vacuum chamber (Schweizer P et al. (1999) Mol Plant Microbe Interact 12:647-54) above which a nylon mesh (mesh size 0.2 mm, Millipore, Eschborn) had been inserted on a perforated board (5 cm above the bottom, 11 cm underneath the macrocarrier, see hereinbelow) to act as diffuser in order to diffuse particle aggregations and to slow down the particle stream. For each bombardment, the macrocarrier (plastic sterile filter holder 13 mm, Gelman Sciences, Swinney, UK) which had been attached at the top of the chamber was loaded with […] of DNA-coated tungsten particles (microcarrier, see hereinbelow). The pressure in the chamber was reduced by 0.9 bar using a membrane vacuum pump (Vacuubrand, Wertheim), and the surface of the plant tissue was bombarded with the tungsten particles at a helium gas pressure of 9 bar. The chamber was aerated immediately thereafter.
# To label transformed cells, the leaves were bombarded with the plasmid (pGFP; pUC18-based vector, CaMV 35S promoter/terminator cassette with inserted GFP gene; Schweizer P et al. (1999) Mol Plant Microbe Interact 12:647-54; provided by Dr P. Schweizer, Schweizer P, Institute of Plant Genetics IPK, Gatersleben, Germany). Before carrying out the bombardment with another plasmid, the macrocarrier was cleaned thoroughly with water in each case. […]
# [2] = tested on: pathogenic fungus or bacterium (Blumeria graminis, Pythium spec., Botrytis cinerea, Pseudomonas syringae and others); assay: Pathogen infection of transgenic Arabidopsis thaliana; assay type: in vivo; details: transgenic plants, sense orientation; fluorescence and light microscopy
# [3] = HPLC analysis of DNPH-derivatized volatile aldehydes; assay type: biochemical; details: substrates 13-HPOTE and 9-HPODE, DNPH derivatives
# Text: The reaction of hydroperoxides with DES gives rise to divinyl ethers which hydrolyze in an acidic environment to give aldehydes. These aldehydes are volatile. In order to identify these aldehydes which are formed, they can be derivatized with DNPH (Kohlmann et al.; 1999, Eur. J. Biochem. 260, 885-895). The hydrazones thus formed are no longer volatile and can be identified with the aid of an HPLC analysis via their retention time.
Molecule,haustorial growth of the fungus in transformed cells [1],effect on total number or number of attacked GFP-expressing cells [1],average % RPE value (relative penetration efficiency) [1] [%],reduction of penetration efficiency by Blumeria graminis f.sp. hordei [1] [%],resistance to pathogens in comparison with the wild type [2],formation of aldehydes in reaction mixture [3]
"Pp364 cDNA: complete cDNA encoding the Physcomitrella patens divinyl ether synthase, used to transform barley and Arabidopsis",no haustorial growth takes place,no effect,−30,44,increased resistance,–
"Pp291 cDNA: complete cDNA encoding the Physcomitrella patens allene oxide synthase, used to transform barley and Arabidopsis (nucleic acid, listed as Physcomitrella patens, CDS (1)..(1428) Pp291 Allenoxid-Synthase, complete cDNA encoding the Physcomitrella patens allene oxide synthase, used to transform barley and Arabidopsis) DNA: ATGGCAGTCCCTTCATCCAAGCTGCCGTTGAAGGCGATTCCTGGAGACTATGGAGTCCCCTACTTCGGTGCCATAAAGGATCGACTAGACTACTTTTGGTTGCAGGGGGAGGAGCAGTTTTACCGAAGCCGGATGGCCAAGTACAATAGCACGGTGTTTCGTGTCAACATGCCGCCTGGCCCTCCAATTTCCGAACACCCTCAAGTCATCTGCCTCTTGGATCAGAAAAGCTTTCCAATTCTGTTCGACGTTAGCAAGGTTGAGAAAAAGGACGTGTTCACAGGAACATACATGCCGAGTGTGAGCTTCACCAGCGGGTACCGCGTTTGCTCCTACTTGGATCCCTCTGAGGAACGCCACACGAAGCTCAAGCAATGGTGCTTTGAAGTCATTGCGATGAACGGGCGGAACTTTCTTCCCGAGTTTCACAAGTCGATTGAAGAGTCGATGGTGCTCTGGGAGACGAGTCTGGCCAAGGGCGAGAAGACTAGCGTATCGGATGAGGTGAAACAGTTCGCGTTTAATTTCCTGATGCGCGCTGTATGCCATCACGACCCCGCTGCGCCTGGAGAATACAGCTTAGGGCGTAATGGTGGCCCGTATGCAACCGCCTGGGCAAATCCCCAGCTCGCTCCGATTGCAGGACAGACGGGTCTCCCCCATGTCGTGGAGGAGCTCGTGTTACACACCGTCCCACTCCCCTCTGCCCTGGTCAAGAAGAACTACGATGCCCTCTACAATTTCATCAAAAACTACGCCACCGAGGCGCTGGATAGGGCTGAAGCTATGGGCATCGAGCGCAATGACGCCACTGCCAACCTGCTGTTCTTCCTTTGCTTTAACGCCTACGGCGGATTCAGCATCTTCTTCCCCCTCATCACTATCCTCATTTCTTCATGCGGTCCGGAGCTCATGCACGATCTCCACGACGAAGTCACCAAGGCCGTCGCCGCCACAGATGGGAAAGTCACTCTTCAATCCATCGAGAACATGCCATTGGTGAAGTCCGTCGTCTACGAAGCTTTCCGATTCAAGCCCCCAGTGCCATACCAATACGGCAAGGCCAAGTTCGACTTCACCATAGAGAACCACGAAAACTCCTTCGAGGTCAAGAAGGGAGAAATGCTGTATGGTTATCAACCTATCGTGATGCACGACCCCAAGGTCTTCTCGGACCCAGATCAGTTTCTACCTCGACGATTCATGGGCCCCGACGGCGAGAAGCTCATCAAATACATCTTCTGGTCCAATGGTTACGAGACTGACGAGCCGACTACCGCAAACAAGCAGTGCGCCGGAAAGGACTTGGTGGTCACAATGGCGCGAGCATTCGTCGCAGAAATGTTCTTGAGATATAAAGAGTATACCCTGACCATGGAGGGCGCAGGAAATGCGACCAAGGTTTTCTTTTCCGATCTCAAAAAGTGA",no haustorial growth takes place,no effect,−30,44,increased resistance,–
"Pp364: Physcomitrella patens CYP74E divinyl ether synthase, 532 amino acids, recombinantly expressed in E. coli (protein, listed as Physcomitrella patens) MDRTLVLTCTTTCSHSAFRQSALPSNTSISVRLGTCSVRTQKRRTVVASLGNIETTSTSTVGQESNLPLREIPGSYGIPYLSQLLDRWTFFYREGEPQFWQSRMAKYGSTVIRSNMPPGWFWTDSRCIMLLDQKSYPTVFDYDKVDKYKAFAGTIMPSTEYNGGYEVCAYLDASDKKHEQLKGYCFELLKFSSSKWAREFHTAISETFNQWEGKLAQKTPALINPTLPESLFSFVINALTTARFDDSSIPDAEKPVCGDLQKWAGFQLMPVIRTGAPIYIEEMLHVAPIPASLTKGGYDKMVVFLQKYAAETLSIAEKFGLSQDEAVHNLIFFLILNAHGGFCRFLPVILREVAKNGQLQADLREEVRAAVKASGSDQVTMKAVMNDMPLVASTVFEALRFDPPVPFQYARAKKDFIIESHDARYQIKTGDFLGGVNYMVSRDPKVFTDRPNEFNARRFMGPEGDKLLAHLVWSNGRQTDETTVYTKQCAGKEIVPLTGRLLLAELFMRFDSFNIEGLEMEATFTSLTPRSD",–,–,–,–,–,aldehydes are formed
"Pp291: Physcomitrella patens CYP74A allene oxide synthase, 475 amino acids, recombinantly expressed in E. coli (protein, listed as Physcomitrella patens) MAVPSSKLPLKAIPGDYGVPYFGAIKDRLDYFWLQGEEQFYRSRMAKYNSTVFRVNMPPGPPISEHPQVICLLDQKSFPILFDVSKVEKKDVFTGTYMPSVSFTSGYRVCSYLDPSEERHTKLKQWCFEVIAMNGRNFLPEFHKSIEESMVLWETSLAKGEKTSVSDEVKQFAFNFLMRAVCHHDPAAPGEYSLGRNGGPYATAWANPQLAPIAGQTGLPHVVEELVLHTVPLPSALVKKNYDALYNFIKNYATEALDRAEAMGIERNDATANLLFFLCFNAYGGFSIFFPLITILISSCGPELMHDLHDEVTKAVAATDGKVTLQSIENMPLVKSVVYEAFRFKPPVPYQYGKAKFDFTIENHENSFEVKKGEMLYGYQPIVMHDPKVFSDPDQFLPRRFMGPDGEKLIKYIFWSNGYETDEPTTANKQCAGKDLVVTMARAFVAEMFLRYKEYTLTMEGAGNATKVFFSDLKK",–,–,–,–,–,No aldehydes were detected
